Data reported in publication PMC4973297, “Crystal structure of the PAS domain of the hEAG potassium channel” (Acta Crystallographica. Section F, Structural Biology …, 2016).

Target: the molecule itself
Experiment: SEC; HiLoad 26/60 Superdex 200, 20 mM Tris-HCl pH 7.5, 200 mM NaCl, 5 mM DTT; last step of the purification

B1: N-PAS domain of the human EAG channel (residues 1-146) (domain or fragment, UniProt O95259 1-146, looked up)
chain: MTMAGGRRGLVAPQNTFLENIVRRSNDTNFVLGNAQIVDWPIVYSNDGFCKLSGYHRAEVMQKSSTCSFMYGELTDKDTIEKVRQTFENYEMNSFEILMYKKNRTPVWFFVKIAPIRNEQDKVVLFLCTFSDITAFKQPIEDDSCK
notes: human ether-a-go-go potassium channel (hEAG), N-terminal residues 1-146 holding the PAS domain; amplified from a human cDNA library; calculated mass 16 933.16 Da; The crystal has six molecules per asymmetric unit; Only about residues 27/28 to 135/137 are built in the model; Residues left by PreScission cleavage are not described; also called hEAG N-PAS domain; PAS domain of hEAG; not shown: GST, …
stoichiometry N: 2
